B2: Purified human calcium-replete thrombospondin-1 (TSP1) from thrombin-activated platelets (ligand)
chain: not shown
notes: mature; also called purified platelet TSP1

The target of test [1] is B2. Nature of the test: solid phase binding, 125I-RANTES on immobilized TSP1; saturatable, biphasic.
Procedure: (§1) Washed wells were blocked with 0.5% bovine serum albumin ("BSA"), then incubated in triplicate with soluble radiolabeled ligand for 2.5 hours at 37° C. After extensive washing in 50 mM Tris pH 7.5, 150 mM NaCl, 0.5% Tween-20 (TBS-Tween), bound radioactivity was quantified by gamma counter. […] Specific binding was determined as quenchable in the presence of excess unlabeled ligand, above background binding to BSA-coated wells.
Test [2] concerns the target T1, CHO cell-expressed soluble recombinant CD4 (UniProt P01730 26-394).
T1 construct: also called soluble CD4
The test is described as follows: solid phase binding, 125I-CD4 on immobilized TSP1.
Procedure: as §1

B1: RANTES (regulated on activation normal T expressed and secreted protein) (ligand, UniProt P13501 24-91, looked up)
chain: SPYSSDTTPCCFAYIARPLPRAHIKEYFYTSGKCSNPAVVFVTRKNRQVCANPEKKWVREYINSLEMS
In general, EC50 refers to the concentration giving half of the maximal effect. Consider B1, for which the EC50 in test [1] was approximately 0.33 µM. Take B2: the binding result in test [2] is “binds”.
